Assay results reported in patent US20210017226A1, “METHOD OF GENERATING INTERACTING PEPTIDES” (Peption, LLC, priority 2017, published 2021).
Ends that are not written are not given here.

Experiments:
[1] = target: T1, PTD12 (Sp-C9_CAA813-821), synthetic Cas9 target peptide […] (Streptococcus pyogenes); test: dot blot densitometry
[2] = target: T1, PTD12 (Sp-C9_CAA813-821), synthetic …; test: dot blot densitometry, same amount of purified proteins

B1: C9-813-CAA4 (tetramer, parallel-linker-antiparallel-linker-parallel-linker-antiparallel), recombinan (designed binder)
chain: MHHHHHHLLSVEVQQLCYPENLEYLFIEKLRSEAEGNGTIDFELLQVDVILLKTGEVNNLEQIKIRLF
- fold stronger interaction than the monomers (C9-813-92P, C9-813-93P) [1]: 1.5 fold

Binder: MHHHHHHELLLSVEVQQLCYPENLEYLFIEKL (designed binder, not shown: small tags and cut ends; large carriers) [C9-813-CAA2 (dimer, parallel-linker-antiparallel), recombinant CAAP oligopeptide-AP fusion protein]
- fold stronger interaction than C9-813-92P or C9-813-93P (monomers) [2]: 2.5 fold
- fold stronger interaction than C9-813-CAA4 (tetramer) [2]: 1.5 fold

Binder: LLQVDVILLCYPENLEQIKIRLFGSGSHHHHHH (designed binder, also: dimer) [PTD14 (Sp-C9_CAA813-821PAPH), synthetic His-tagged CAAP oligopeptide dimer]
- fold stronger interaction than the monomer PTD13 [1]: 2 fold
- fold stronger interaction than the sAb monomer PTD13 [1]: 2 fold
